Data taken from patent publication US20200147230A1.

Columns and labels:
[1] = biological target: murine nucleolin (in Colon 26 / C26 murine colon carcinoma cells) (murine) (UniProt P09405); assay: fixed cell assay on fixed, permeabilised murine C26 cells; negative control
human nucleolin (human) = human nucleolin (human) (UniProt P19338); assay: fixed cell assay on fixed, permeabilised Raji cells; negative control, ambiguous fit
Sequence of UniProt P19338 (P19338 2-710 limits assumed): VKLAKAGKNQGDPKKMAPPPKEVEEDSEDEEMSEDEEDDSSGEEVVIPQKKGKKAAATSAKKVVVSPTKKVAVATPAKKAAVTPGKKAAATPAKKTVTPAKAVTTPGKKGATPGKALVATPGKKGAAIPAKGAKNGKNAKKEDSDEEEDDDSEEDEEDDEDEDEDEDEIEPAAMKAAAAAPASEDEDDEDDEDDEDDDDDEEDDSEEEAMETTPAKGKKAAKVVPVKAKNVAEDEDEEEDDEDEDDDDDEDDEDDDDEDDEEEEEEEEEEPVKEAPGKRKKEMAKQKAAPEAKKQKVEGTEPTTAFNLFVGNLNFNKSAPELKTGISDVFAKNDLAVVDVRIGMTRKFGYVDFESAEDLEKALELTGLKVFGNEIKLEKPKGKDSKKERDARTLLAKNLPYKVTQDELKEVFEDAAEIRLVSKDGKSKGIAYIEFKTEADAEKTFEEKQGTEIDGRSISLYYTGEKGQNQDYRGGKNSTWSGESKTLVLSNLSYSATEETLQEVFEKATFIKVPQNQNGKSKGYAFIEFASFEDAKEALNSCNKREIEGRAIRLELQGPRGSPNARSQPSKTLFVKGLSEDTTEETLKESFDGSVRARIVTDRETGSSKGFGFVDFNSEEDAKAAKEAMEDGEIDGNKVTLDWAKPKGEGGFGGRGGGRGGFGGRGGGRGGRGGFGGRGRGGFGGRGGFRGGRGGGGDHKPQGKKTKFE

Sequence of UniProt P09405 (P09405 2-707): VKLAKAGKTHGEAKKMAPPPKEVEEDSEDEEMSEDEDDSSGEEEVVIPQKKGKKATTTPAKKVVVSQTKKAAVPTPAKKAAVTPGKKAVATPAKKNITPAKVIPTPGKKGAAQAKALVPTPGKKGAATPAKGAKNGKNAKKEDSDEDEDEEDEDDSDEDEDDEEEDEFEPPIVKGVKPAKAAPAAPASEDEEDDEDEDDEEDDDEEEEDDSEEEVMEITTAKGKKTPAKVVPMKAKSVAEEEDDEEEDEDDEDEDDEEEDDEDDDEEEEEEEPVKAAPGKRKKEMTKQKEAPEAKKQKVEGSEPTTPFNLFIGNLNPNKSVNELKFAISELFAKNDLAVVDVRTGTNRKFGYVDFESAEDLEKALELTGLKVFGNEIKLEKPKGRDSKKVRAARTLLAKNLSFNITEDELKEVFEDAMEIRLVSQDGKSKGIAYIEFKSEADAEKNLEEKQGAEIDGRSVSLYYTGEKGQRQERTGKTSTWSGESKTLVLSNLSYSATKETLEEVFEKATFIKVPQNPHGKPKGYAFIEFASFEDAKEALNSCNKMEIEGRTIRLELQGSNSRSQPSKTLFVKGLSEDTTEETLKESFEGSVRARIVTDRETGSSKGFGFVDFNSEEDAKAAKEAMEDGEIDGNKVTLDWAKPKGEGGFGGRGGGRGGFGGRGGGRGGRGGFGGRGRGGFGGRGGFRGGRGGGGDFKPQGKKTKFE

Kd [1]: 33.3 µM
Kd (human nucleolin (human)): 1300 nM
Substance: IgG1 isotype control antibody
